Data on two molecules can be found in PMC2791412 (Biochemistry, 2009).

For assay [1], the target named is T1, calmodulin (native vertebrate CaM) (vertebrate, UniProt P0DP23 1-149). As to the kind of experiment: other fluorescence titration.
For assay [2], the target named is T1, calmodulin (native vertebrate CaM). Put plainly: other fluorescence titration. This is another data set of the same source.

Where two headings read alike, the source gives them in different places. No end group written: not given here.

On to AHKAATKIQASFRGHITRKKLKGEKKDDVQ (domain or fragment, also: fluorescent reporter) [BIQ, fluorescent reporter containing an IQ domain sequence derived from neuromodulin], for which the values for the Kd in assay [1] and in assay [2] were 2.9 µM and 2.4 µM, respectively.

Regarding TERAAVAIQSQFRKFQKKKAGSQS (domain or fragment, also: fluorescent reporter) [BIQPEP, fluorescent reporter containing an IQ domain sequence derived from PEP19], the Kd (usually the concentration at which binding is half-saturated) in assay [1] came to 11 µM; in assay [2], 1130 µM.
